According to paper PMC11772769, “Selective cargo and membrane recognition by SNX17 regulates its interaction with Retriever” (EMBO Reports, 2024):

B1: unnamed (parent)
chain 1: MHFSIPETESRSGDSGGSAYVAYNIHVNGVLHCRVRYSQLLGLHEQLRKEYGANVLPAFPPKKLFSLTPAEVEQRREQLEKYMQAVRQDPLLGSSETFNSFLRRAQQETQQVPTEEVSLEVLLSNGQKVLVNVLTSDQTEDVLEAVAAKLDLPDDLIGYFSLFLVREKEDGAFSFVRKLQEFELPYVSVTSLRSQEYKIVLRKSYWDSAYDDDVMENRVGLNLLYAQTVSDIERGWILVTKEQHRQLKSLQEKVSKKEFLRLAQTLRHYGYLRFDACVADFPEKDCPVVVSAGNSELSLQLRLPGQQLREGSFRVTRMRCWRVTSSVPLPSGSTSSPGRGRGEVRLELAFEYLMSKDRLQWVTITSPQAIMMSICLQSMVDELMVKKSGGSIRKMLRRRVGGTLRRSDSQQAVKSPPLLESPDATRESMVKLSSKLSAVSLRGIGSPSTDASASDVHGNFAFEGIGDEDL
chain 2: not shown

Variants of: B1
Test: fluorescence anisotropy
Conditions: with partner chain of the complex shown; 5-FAM-labeled L2 14-mer peptide

| Variant | Kd [µM] |
| --- | --- |
| chain 1 W321A | 76 |
| chain 1 H457A | 1.1 |
